From publication PMC6007377

Biological target: TDG N140A (human, UniProt Q13569 1-410, N140A)
Test: fluorescence anisotropy

Chain of TDG N140A (Q13569 whole entry N140A): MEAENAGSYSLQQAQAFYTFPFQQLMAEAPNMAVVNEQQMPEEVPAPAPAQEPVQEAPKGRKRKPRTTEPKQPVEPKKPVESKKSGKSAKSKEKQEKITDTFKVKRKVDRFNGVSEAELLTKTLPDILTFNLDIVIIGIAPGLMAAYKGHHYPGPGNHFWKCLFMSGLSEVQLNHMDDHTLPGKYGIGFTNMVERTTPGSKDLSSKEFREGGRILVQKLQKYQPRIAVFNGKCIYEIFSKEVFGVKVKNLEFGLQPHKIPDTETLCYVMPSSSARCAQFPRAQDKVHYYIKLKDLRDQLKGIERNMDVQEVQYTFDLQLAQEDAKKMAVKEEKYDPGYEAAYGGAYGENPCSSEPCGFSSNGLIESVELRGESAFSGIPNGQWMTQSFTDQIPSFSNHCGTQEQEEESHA

B1: G·fC 28mer (TR) (dsDNA)
DNA 1: GTGTCACCACTGCTCACGTACAGAGCTG
DNA 2: CAGCTCTGTACGTGAGCAGTGGTGACAC
modifications: 5-formylcytosine at position 17 of strand 1, paired with G
How did the Kd turn out when B1 was run?
The Kd was 4 ± 0.8 nM.

B2: G·caC 28mer (TR) (dsDNA)
DNA 1: GTGTCACCACTGCTCACGTACAGAGCTG
DNA 2: CAGCTCTGTACGTGAGCAGTGGTGACAC
modifications: 5-carboxylcytosine at position 17 of strand 1, paired with G
B2 was tested. Which Kd did it give?
Its Kd is 2.3 ± 0.6 nM.
